From patent US20110086806A1 (published 2011)

T1: recombinant human IL-23R/Fc chimera (R&D Systems) (human, UniProt Q5VWK5 24-355)
T1 construct: Bought; also called rhIL23RFc
T1 sequence (looked up): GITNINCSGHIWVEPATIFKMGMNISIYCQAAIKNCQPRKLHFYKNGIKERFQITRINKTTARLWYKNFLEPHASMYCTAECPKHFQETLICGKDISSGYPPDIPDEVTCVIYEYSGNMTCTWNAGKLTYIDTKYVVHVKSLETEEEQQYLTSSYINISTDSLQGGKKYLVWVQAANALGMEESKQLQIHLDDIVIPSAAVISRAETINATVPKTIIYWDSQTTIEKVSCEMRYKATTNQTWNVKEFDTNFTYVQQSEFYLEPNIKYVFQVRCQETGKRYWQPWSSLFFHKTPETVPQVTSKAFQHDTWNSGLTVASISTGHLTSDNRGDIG


How the values were obtained:
[1] = target: T1, recombinant human IL-23R/Fc chimera …; assay: SPR
How it was run: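 Recombinant human IL-23R/Fc captured on anti-human IgG Fc CM5 surface (<200 RU); ATRIMER complexes at 1-500 nM injected at 30 μl/min, 3 min association and 5 min dissociation. Kinetic constants fitted from double-referenced sensorgrams.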

[2] = target: T1, recombinant human IL-23R/Fc chimera …; assay: competition ELISA vs IL-23

Binder	Ka [1]	Kd [1]	koff [1]	kon [1]	Ratio IC50 to 056-53.H4E IC50 [2]
105-08-2F6 ATRIMER complex (designed binder) EPPTQKPKKIVNAKKDVVNTKMFEELKSRLDTLAQEVALLKEQQALQTVCLKGTKVHMKCFLAFTQTKTFHEASEDCISRGGTLSTPQTGSENDALYEYLRQSVGNEAEIWLGLNGSAYTNTWVDMTGARIAYKNWETEITAQPDGGFGYFGENCAVLSGAANGKWFDKRCRDQLPYICQFGIV	1.53e+09 M⁻¹	0.653 nM	0.000359 s⁻¹	550000 M⁻¹ s⁻¹	2.4
105-08-1D3 ATRIMER complex (designed binder) EPPTQKPKKIVNAKKDVVNTKMFEELKSRLDTLAQEVALLKEQQALQTVCLKGTKVHMKCFLAFTQTKTFHEASEDCISRGGTLSTPQTGSENDALYEYLRQSVGNEAEIWLGLNGSKVTETWVDMTGARIAYKNWETEITAQPDGGFGYFGENCAVLSGAANGKWFDKRCRDQLPYICQFGIV	7.58e+08 M⁻¹	1.32 nM	0.000301 s⁻¹	228000 M⁻¹ s⁻¹	0.4
101-113-6C102 ATRIMER complex (designed binder, not shown: C-terminal tag) EPPTQKPKKIVNAKKDVVNTKMFEELKSRLDTLAQEVALLKEQQALQTVCLKGTKVHMKCFLAFTQTKTFHEASEDCISRGGTLSTPQTGSENDALYEYLRQSVGNEAEIWLGLNGSNVTQTWVDMTGARIAYKNWEPPPPHHPQGGFGVFGENCAVLSGAANGKWFDKRCRDQLPYICQFGIV	9.62e+08 M⁻¹	1.04 nM	0.000283 s⁻¹	271000 M⁻¹ s⁻¹	2
105-08-2C10 ATRIMER complex (designed binder) EPPTQKPKKIVNAKKDVVNTKMFEELKSRLDTLAQEVALLKEQQALQTVCLKGTKVHMKCFLAFTQTKTFHEASEDCISRGGTLSTPQTGSENDALYEYLRQSVGNEAEIWLGLNGSLLTDTWVDMTGARIAYKNWETEITAQPDGGFGVFGENCAVLSGAANGKWFDKRCRDQLPYICQFGIV	1.63e+09 M⁻¹	0.612 nM	0.000371 s⁻¹	606000 M⁻¹ s⁻¹	0.9

More lines, in order of falling Kd [1], values ahead:

Ka [1]	Kd [1]	koff [1]	kon [1]	Ratio IC50 to 056-53.H4E IC50 [2]	Binder
8e+08 M⁻¹	1.25 nM	0.000312 s⁻¹	250000 M⁻¹ s⁻¹	1.6	105-08-1A4 ATRIMER complex (designed binder) EPPTQKPKKIVNAKKDVVNTKMFEELKSRLDTLAQEVALLKEQQALQTVCLKGTKVHMKCFLAFTQTKTFHEASEDCISRGGTLSTPQTGSENDALYEYLRQSVGNEAEIWLGLNGSAVTNTWVDMTGARIAYKNWETEITAQPDGGFGYFGENCAVLSGAANGKWFDKRCRDQLPYICQFGIV
1.11e+09 M⁻¹	0.897 nM	0.000429 s⁻¹	479000 M⁻¹ s⁻¹	1.4	101-54-4B10 ATRIMER complex (designed binder) EPPTQKPKKIVNAKKDVVNTKMFEELKSRLDTLAQEVALLKEQQALQTVCLKGTKVHMKCFLAFTQTKTFHEASEDCISRGGTLSTPQTGSENDALYEYLRQSVGNEAEIWLGLNGSALTNTWVDMTGARIAYKNWERPPLYQPGGGFGYFGENCAVLSGAANGKWFDKRCRDQLPYICQFGIV
2.11e+09 M⁻¹	0.473 nM	0.000348 s⁻¹	735000 M⁻¹ s⁻¹	1.1	105-08-1A3 ATRIMER complex (designed binder, Homotrimer of three identical chains (ATRIMER complex); one chain is given., not shown: C-terminal tag: His/Myc (pANA4) or HA-StrepII (pANA10)) EPPTQKPKKIVNAKKDVVNTKMFEELKSRLDTLAQEVALLKEQQALQTVCLKGTKVHMKCFLAFTQTKTFHEASEDCISRGGTLSTPQTGSENDALYEYLRQSVGNEAEIWLGLNGSPRTDTWVDMTGARIAYKNWETEITAQPDGGWGVFGENCAVLSGAANGKWFDKRCRDQLPYICQFGIV
2.89e+09 M⁻¹	0.346 nM	0.000391 s⁻¹	1.13e+06 M⁻¹ s⁻¹	0.6	101-80-5E8 ATRIMER complex (designed binder) EPPTQKPKKIVNAKKDVVNTKMFEELKSRLDTLAQEVALLKEQQALQTVCLKGTKVHMKCFLAFTQTKTFHEASEDCISRGGTLSTPQTGSENDALYEYLRQSVGNEAEIWLGLNGSALTNTWVDMTGARIAYKNWEPPEPLHPMGGFGVFGENCAVLSGAANGKWFDKRCRDQLPYICQFGIV
